# In patent US20090053740A1, “AGGLUTINATION-BASED METHOD FOR FAST DETECTION, ISOLATION AND QUANTIFICATION OF APOPTOTIC CELLS” (CEDARS-SINAI MEDICAL CENTER, priority 2005, published 2009):
# Like-named read-outs stand apart in the source and are kept apart here.
# B1: PSL: Pisum sativum lectin, α-D-mannose-specific (protein, UniProt P02867 31-217; P02867 218-275, looked up)
# Lectin beta chain: TETTSFLITKFSPDQQNLIFQGDGYTTKEKLTLTKAVKNTVGRALYSSPIHIWDRETGNVANFVTSFTFVINAPNSYNVADGFTFFIAPVDTKPQTGGGYLGVFNSAEYDKTTQTVAVEFDTFYNAAWDPSNRDRHIGIDVNSIKSVNTKSWKLQNGEEANVVIAFNAATNVLTVSLTYPNSLEEEN
# Lectin alpha chain: VTSYTLSDVVSLKDVVPEWVRIGFSATTGAEYAAHEVLSWSFHSELSGTSSSKQAADA
# B2: FITC-PSL: FITC-labeled PSL lectin conjugate (conjugate, UniProt P02867 31-217; P02867 218-275, looked up)
# Lectin beta chain: B1 Lectin beta chain
# Lectin alpha chain: B1 Lectin alpha chain
# modifications: FITC label
# notes: FITC-labeled PSL lectin conjugate
# Legend:
# apoptotic cells = assay: Effect of glycoprotein synthesis/traffic inhibitors on glycoprotein expression in apoptotic cells; type: cell-based
# L1210 cells = type: binding, murine
# [1] = tested on: murine leukemia L1210 cells; assay: Effect of cisplatin concentration on quantity of live cells
# Description: Apoptosis of L1210 cells was induced by cisplatin (0.5 and 0.1 μg/ml, or 5.0 μg/ml, Ebewe, Austria) (56,57); apoptosis of L929 cells was induced by hyperthermia 43° C. […] Cell viability was controlled by trypan-blue (0.1% w/v solution) exclusion test, and cells were counted in hemocytometric chamber under light microscope.
# [2] = tested on: murine fibroblasts of L929 line; assay: Lectinocytochemical analysis with HRP-labeled lectins; type: binding
# [3] = tested on: murine leukemia L1210 cells; type: cell-based
# Description: Mixtures were resuspended once and 10 μl were transferred on slide glass, and examined under microscope.
# Mannose-specific PMRL and PSL lectins caused agglutination of normal cells in concentrations of 625 and 1000 μg/ml, respectively and agglutination of apoptotic cells in concentrations of 78 and 125 μg/ml, respectively (FIG. 11). Thus, lectin concentration needed for agglutination of apoptotic cells was approximately equal to and/or equal to ⅛ (625 against 78 and 1000 against 125) of that needed to agglutinate the non-apoptotic cells. It is believed that there is an 8-fold increase in mannose-containing glycoconjugate expression in the apoptotic cells comparing to intact cells. Similar results were obtained for galactose-specific lectins.
# [4] = tested on: human leukemia Jurkat cells; assay: Lectinocytochemical analysis with HRP-labeled lectins; type: binding
# Description: (§1) Lectin cytochemical analysis was conducted as described previously by Herrington & Mc Gee (Herrington C S, McGee JO'D. Diagnostic molecular pathology. Oxford: IRL Press; 1992), with some modifications. Cell smears were fixed in a mixture of acetone, methanol, and formalin (19:19:2) for 90 s at room temperature and then air dried. Smears were washed twice with Tris saline buffer (TSB) for 2 min and incubated with HRP-labeled lectins (50 μg/ml) for 1 h at room temperature or overnight at 4° C. If necessary, the appropriate sugar inhibitor (0.1 M solution) was added to the incubation mixture. Smears were washed twice with TSB for 10 min and incubated with 0.5 mg/ml of 3,3′-diaminobenzidin (Sigma Chemical Co.) and 4 μl/ml of H2O2 in TSB for 5 min. In some experiments a NiCl2 solution was added to the incubation mixture (final concentration, 1 mg/ml) to improve cell contrast.
# (§2) Alternatively, smears were washed in distilled water, air dried and photographed. Densitometric analysis was performed on an AMD-based IBM PC computer using ImageJ (Wayne Rasband, National Institutes of Health, USA) program support and the UTHSCSA ImageTool program (University of Texas Health Science Center in San Antonio, Tex.).
# [5] = tested on: human adenocarcinoma cells of MCF-7 line; assay: as above; type: binding
# Description: as §1, §2
# [6] = tested on: L929, L1210, MCF-7 (wt), MCF-7 (DOX/R), and Jurkat cell lines; assay: Lectinocytochemical analysis, summary over the studied cell lines; type: binding
# [7] = tested on: human lung carcinoma A549 cells; assay: Fluorescent microscopy with fluorescent lectin conjugate; type: binding
molecule,measurement,setting,value
O=CC[C@@H](O)[C@H](O)[C@H](O)CO [2-deoxy-D-glucose],effect on the increase in expression of α-D-mannose- and β-D-galactose-containing glycoprotein(s) in apoptotic cells,apoptotic cells,did not diminish
"CO[C@H]1O[C@H](CO)[C@@H](O)[C@H](O)[C@@H]1O [α-MMan, α-Methyl-D-mannopyranoside, reference compound]",inhibition of lectin binding by specific sugar inhibitor,L1210 cells,almost absolute abolishment
"OC[C@H]1O[C@H](O[C@H]2[C@H](O)[C@@H](O)C(O)O[C@@H]2CO)[C@H](O)[C@@H](O)[C@H]1O (stereo partly drawn) [lactose, 4-O-(α-D-galactopyranosyl)-D-glucopyranose, reference compound]",inhibition of lectin binding by specific sugar inhibitor,"L1210 cells; α-MMan for PSL, lactose for RCA-120",substantial
CC[C@@]1([C@@H]2O[C@@H]([C@H]3O[C@@](O)(CO)[C@H](C)C[C@@H]3C)C[C@@H]2C)CC[C@H]([C@]2(C)CC[C@]3(C[C@H](O)[C@@H](C)[C@@H]([C@@H](C)[C@@H](OC)[C@H](C)C(=O)O)O3)O2)O1 [monensine],effect on the increase in expression of α-D-mannose- and β-D-galactose-containing glycoprotein(s) in apoptotic cells,apoptotic cells,did not diminish
"N.N.[Cl][Pt][Cl] [cisplatin, cis-diamminodichloroplatinum]",effect of increasing concentration on live cell number,[1],decrease in live cell number
tunicamycin,effect on the increase in expression of α-D-mannose- and β-D-galactose-containing glycoprotein(s) in apoptotic cells,apoptotic cells,did not diminish
B1,binding by apoptotic cells compared with normal cells,L1210 cells,much better bound
same,"lectin binding of cells pretreated 2 h with non-labeled lectin vs untreated, stained with corresponding HRP-labeled lectin",L1210 cells,decrease
same,"lectin binding, apoptotic vs normal cells",[2]; L929,significantly stronger binding
same,"staining, apoptotic vs non-apoptotic cells","[2]; L929, etoposide 10 μM, 72 h",more intensive staining
same,"lectin binding, apoptotic vs non-apoptotic cells","[2]; L929, hyperthermia 43° C., 3h, detached by rubbing",increased binding
same,"lectin binding, apoptotic vs intact cells","[2]; L929, hyperthermia, trypsinization",significantly stronger
same,lectin concentration needed for agglutination of apoptotic cells as fraction of that needed for non-apoptotic cells,[3]; L1210 cells,⅛
same,minimal lectin concentration needed to induce noticeable agglutination,[3]; apoptotic L1210 cells,125 µg/mL
same,minimal lectin concentration needed to induce noticeable agglutination,[3]; normal L1210 cells,1000 µg/mL
same,"lectin binding, apoptotic vs non-apoptotic cells",[4],stronger
same,"lectin binding, apoptotic vs non-apoptotic cells",[5],increase in binding
same,"lectin binding, apoptotic vs normal cells",[5],statistically insignificant
same,lectin binding with apoptotic cells compared to non-apoptotic cells,[6],increased bidding
B2,binding of labeled lectin compared to untreated cells or cells with onset of apoptosis,"[7]; A549, 5 μg/ml cisplatin 24 hours, apoptosis in almost all cells (FIG. 18 lower row)",significantly higher
same,binding of labeled lectin compared to untreated cells,"[7]; A549, 5 μg/ml cisplatin 24 hours, beginning of apoptotic cell death (FIG. 18 middle row)",significantly stronger
same,binding of labeled lectin,[7]; untreated A549 cells,did not bind
